First the molecules themselves.
B1: DCC-interacting protein 13-alpha (Homo sapiens), Q9UKG1 (parent)
chain: MPGIDKLPIEETLEDSPQTRSLLGVFEEDATAISNYMNQLYQAMHRIYDAQNELSAATHLTSKLLKEYEKQRFPLGGDDEVMSSTLQQFSKVIDELSSCHAVLSTQLADAMMFPITQFKERDLKEILTLKEVFQIASNDHDAAINRYSRLSKKRENDKVKYEVTEDVYTSRKKQHQTMMHYFCALNTLQYKKKIALLEPLLGYMQAQISFFKMGSENLNEQLEEFLANIGTSVQNVRREMDSDIETMQQTIEDLEVASDPLYVPDPDPTKFPVNRNLTRKAGYLNARNKTGLVSSTWDRQFYFTQGGNLMSQARGDVAGGLAMDIDNCSVMAVDCEDRRYCFQITSFDGKKSSILQAESKKDHEEWICTINNISKQIYLSENPEETAARVNQSALEAVTPSPSFQQRHESLRPAAGQSRPPTARTSSSGSLGSESTNLAALSLDSLVAPDTPIQFDIISPVCEDQPGQAKAFGQGGRRTNPFGESGGSTKSETEDSILHQLFIVRFLGSMEVKSDDHPDVVYETMRQILAARAIHNIFRMTESHLLVTCDCLKLIDPQTQVTRLTFPLPCVVLYATHQENKRLFGFVLRTSSGRSESNLSSVCYIFESNNEGEKICDSVGLAKQIALHAELDRRASEKQKEIERVKEKQQKELNKQKQIEKDLEEQSRLIAASSRPNQASSEGQFVVLSSSQSEESDLGEGGKKRESEA
B2: Fanconi anemia group G protein (Homo sapiens), O15287 (parent)
chain: MSRQTTSVGSSCLDLWREKNDRLVRQAKVAQNSGLTLRRQQLAQDALEGLRGLLHSLQGLPAAVPVLPLELTVTCNFIILRASLAQGFTEDQAQDIQRSLERVLETQEQQGPRLEQGLRELWDSVLRASCLLPELLSALHRLVGLQAALWLSADRLGDLALLLETLNGSQSGASKDLLLLLKTWSPPAEELDAPLTLQDAQGLKDVLLTAFAYRQGLQELITGNPDKALSSLHEAASGLCPRPVLVQVYTALGSCHRKMGNPQRALLYLVAALKEGSAWGPPLLEASRLYQQLGDTTAELESLELLVEALNVPCSSKAPQFLIEVELLLPPPDLASPLHCGTQSQTKHILASRCLQTGRAGDAAEHYLDLLALLLDSSEPRFSPPPSPPGPCMPEVFLEAAVALIQAGRAQDALTLCEELLSRTSSLLPKMSRLWEDARKGTKELPYCPLWVSATHLLQGQAWVQLGAQKVAISEFSRCLELLFRATPEEKEQGAAFNCEQGCKSDAALQQLRAAALISRGLEWVASGQDTKALQDFLLSVQMCPGNRDTYFHLLQTLKRLDRRDEATALWWRLEAQTKGSHEDALWSLPLYLESYLSWIRPSDRDAFLEEFRTSLPKSCDL
partner: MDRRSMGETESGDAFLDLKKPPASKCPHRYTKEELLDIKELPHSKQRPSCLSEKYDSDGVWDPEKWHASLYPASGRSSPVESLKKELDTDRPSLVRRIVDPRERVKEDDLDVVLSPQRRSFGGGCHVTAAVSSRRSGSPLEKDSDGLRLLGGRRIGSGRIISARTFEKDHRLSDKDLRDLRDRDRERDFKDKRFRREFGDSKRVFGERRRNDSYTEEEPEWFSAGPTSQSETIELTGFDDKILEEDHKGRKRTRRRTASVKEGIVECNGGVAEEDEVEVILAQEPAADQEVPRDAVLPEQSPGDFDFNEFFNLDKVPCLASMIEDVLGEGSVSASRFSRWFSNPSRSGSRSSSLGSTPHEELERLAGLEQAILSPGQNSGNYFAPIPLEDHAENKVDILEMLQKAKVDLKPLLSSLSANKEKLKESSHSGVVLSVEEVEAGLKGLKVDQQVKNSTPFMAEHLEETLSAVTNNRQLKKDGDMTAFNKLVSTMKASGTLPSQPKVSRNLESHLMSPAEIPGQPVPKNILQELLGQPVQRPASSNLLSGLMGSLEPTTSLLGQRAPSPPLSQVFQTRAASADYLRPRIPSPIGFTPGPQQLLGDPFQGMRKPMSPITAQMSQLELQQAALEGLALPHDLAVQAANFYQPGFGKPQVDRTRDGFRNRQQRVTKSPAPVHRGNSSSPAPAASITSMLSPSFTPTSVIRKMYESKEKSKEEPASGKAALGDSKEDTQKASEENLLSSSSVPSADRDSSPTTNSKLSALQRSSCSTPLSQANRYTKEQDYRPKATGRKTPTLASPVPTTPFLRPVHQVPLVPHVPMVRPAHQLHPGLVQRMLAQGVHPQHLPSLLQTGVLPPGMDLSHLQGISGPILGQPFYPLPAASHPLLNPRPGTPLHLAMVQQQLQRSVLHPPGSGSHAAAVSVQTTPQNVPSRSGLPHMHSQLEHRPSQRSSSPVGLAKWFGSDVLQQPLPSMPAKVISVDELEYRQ
B3: Regulator of G-protein signaling 20 (Homo sapiens), O76081 (parent)
chain: MPQLSQDNQECLQKHFSRPSIWTQFLPLFRAQRYNTDIHQITENEGDLRAVPDIKSFPPAQLPDSPAAPKLFGLLSSPLSSLARFFSHLLRRPPPEAPRRRLDFSPLLPALPAARLSRGHEELPGRLSLLLGAALALPGRPSGGRPLRPPHPVAKPREEDATAGQSSPMPQMGSERMEMRKRQMPAAQDTPGAAPGQPGAGSRGSNACCFCWCCCCSCSCLTVRNQEDQRPTIASHELRADLPTWEESPAPTLEEVNAWAQSFDKLMVTPAGRNAFREFLRTEFSEENMLFWMACEELKKEANKNIIEEKARIIYEDYISILSPKEVSLDSRVREVINRNMVEPSQHIFDDAQLQIYTLMHRDSYPRFMNSAVYKDLLQSLSEKSIEA
partner: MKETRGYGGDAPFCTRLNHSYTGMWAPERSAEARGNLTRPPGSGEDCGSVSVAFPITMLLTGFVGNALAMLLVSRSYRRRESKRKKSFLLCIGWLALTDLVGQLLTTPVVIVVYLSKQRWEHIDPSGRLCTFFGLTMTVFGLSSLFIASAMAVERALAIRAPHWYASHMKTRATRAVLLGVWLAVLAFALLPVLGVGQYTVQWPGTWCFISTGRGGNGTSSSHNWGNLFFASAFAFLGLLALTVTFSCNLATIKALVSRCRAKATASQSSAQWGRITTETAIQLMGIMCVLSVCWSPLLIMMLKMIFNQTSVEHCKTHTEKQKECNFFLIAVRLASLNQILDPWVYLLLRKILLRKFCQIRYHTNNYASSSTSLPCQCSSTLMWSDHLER
B4: Vesicle transport protein SFT2B (Homo sapiens), O95562 (parent)
chain: MDKLKKVLSGQDTEDRSGLSEVVEASSLSWSTRIKGFIACFAIGILCSLLGTVLLWVPRKGLHLFAVFYTFGNIASIGSTIFLMGPVKQLKRMFEPTRLIATIMVLLCFALTLCSAFWWHNKGLALIFCILQSLALTWYSLSFIPFARDAVKKCFAVCLA
partner: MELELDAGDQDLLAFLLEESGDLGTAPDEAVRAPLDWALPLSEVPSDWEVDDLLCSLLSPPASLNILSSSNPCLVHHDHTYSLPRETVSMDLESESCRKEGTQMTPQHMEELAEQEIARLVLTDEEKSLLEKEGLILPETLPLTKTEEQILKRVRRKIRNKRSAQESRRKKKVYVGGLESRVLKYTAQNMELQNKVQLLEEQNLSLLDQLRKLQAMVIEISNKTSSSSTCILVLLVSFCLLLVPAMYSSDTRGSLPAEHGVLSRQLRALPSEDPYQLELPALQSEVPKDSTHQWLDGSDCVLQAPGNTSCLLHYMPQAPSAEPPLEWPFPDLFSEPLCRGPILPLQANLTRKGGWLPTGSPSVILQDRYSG
B5: Isoform 1 of Aminoacylase-1 (Homo sapiens), Q03154-1 (parent)
chain: MTSKGPEEEHPSVTLFRQYLRIRTVQPKPDYGAAVAFFEETARQLGLGCQKVEVAPGYVVTVLTWPGTNPTLSSILLNSHTDVVPVFKEHWSHDPFEAFKDSEGYIYARGAQDMKCVSIQYLEAVRRLKVEGHRFPRTIHMTFVPDEEVGGHQGMELFVQRPEFHALRAGFALDEGIANPTDAFTVFYSERSPWWVRVTSTGRPGHASRFMEDTAAEKLHKVVNSILAFREKEWQRLQSNPHLKEGSVTSVNLTKLEGGVAYNVIPATMSASFDFRVAPDVDFKAFEEQLQSWCQAAGEGVTLEFAQKWMHPQVTPTDDSNPWWAAFSRVCKDMNLTLEPEIMPAATDNRYIRAVGVPALGFSPMNRTPVLLHDHDERLHEAVFLRGVDIYTRLLPALASVPALPSDS
B6: STAM-binding protein (Homo sapiens), O95630 (parent)
chain: MSDHGDVSLPPEDRVRALSQLGSAVEVNEDIPPRRYFRSGVEIIRMASIYSEEGNIEHAFILYNKYITLFIEKLPKHRDYKSAVIPEKKDTVKKLKEIAFPKAEELKAELLKRYTKEYTEYNEEKKKEAEELARNMAIQQELEKEKQRVAQQKQQQLEQEQFHAFEEMIRNQELEKERLKIVQEFGKVDPGLGGPLVPDLEKPSLDVFPTLTVSSIQPSDCHTTVRPAKPPVVDRSLKPGALSNSESIPTIDGLRHVVVPGRLCPQFLQLASANTARGVETCGILCGKLMRNEFTITHVLIPKQSAGSDYCNTENEEELFLIQDQQGLITLGWIHTHPTQTAFLSSVDLHTHCSYQMMLPESVAIVCSPKFQETGFFKLTDHGLEEISSCRQKGFHPHSKDPPLFCSCSHVTVVDRAVTITDLR
partner: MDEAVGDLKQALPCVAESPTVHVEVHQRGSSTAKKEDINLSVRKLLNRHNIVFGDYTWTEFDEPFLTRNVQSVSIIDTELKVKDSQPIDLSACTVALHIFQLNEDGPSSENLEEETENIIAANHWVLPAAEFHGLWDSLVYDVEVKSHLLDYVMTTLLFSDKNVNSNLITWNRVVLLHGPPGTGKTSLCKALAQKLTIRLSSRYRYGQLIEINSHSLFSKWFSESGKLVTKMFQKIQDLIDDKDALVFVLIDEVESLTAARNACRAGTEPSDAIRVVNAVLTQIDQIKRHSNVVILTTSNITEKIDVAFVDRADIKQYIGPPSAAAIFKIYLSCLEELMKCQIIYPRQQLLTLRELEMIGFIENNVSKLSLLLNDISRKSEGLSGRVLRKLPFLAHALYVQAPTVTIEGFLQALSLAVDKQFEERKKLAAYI
B7: Keratin, type I cytoskeletal 20 (Homo sapiens), P35900 (parent)
chain: MDFSRRSFHRSLSSSLQAPVVSTVGMQRLGTTPSVYGGAGGRGIRISNSRHTVNYGSDLTGGGDLFVGNEKMAMQNLNDRLASYLEKVRTLEQSNSKLEVQIKQWYETNAPRAGRDYSAYYRQIEELRSQIKDAQLQNARCVLQIDNAKLAAEDFRLKYETERGIRLTVEADLQGLNKVFDDLTLHKTDLEIQIEELNKDLALLKKEHQEEVDGLHKHLGNTVNVEVDAAPGLNLGVIMNEMRQKYEVMAQKNLQEAKEQFERQTAVLQQQVTVNTEELKGTEVQLTELRRTSQSLEIELQSHLSMKESLEHTLEETKARYSSQLANLQSLLSSLEAQLMQIRSNMERQNNEYHILLDIKTRLEQEIATYRRLLEGEDVKTTEYQLSTLEERDIKKTRKIKTVVQEVVDGKVVSSEVKEVEENI
partner: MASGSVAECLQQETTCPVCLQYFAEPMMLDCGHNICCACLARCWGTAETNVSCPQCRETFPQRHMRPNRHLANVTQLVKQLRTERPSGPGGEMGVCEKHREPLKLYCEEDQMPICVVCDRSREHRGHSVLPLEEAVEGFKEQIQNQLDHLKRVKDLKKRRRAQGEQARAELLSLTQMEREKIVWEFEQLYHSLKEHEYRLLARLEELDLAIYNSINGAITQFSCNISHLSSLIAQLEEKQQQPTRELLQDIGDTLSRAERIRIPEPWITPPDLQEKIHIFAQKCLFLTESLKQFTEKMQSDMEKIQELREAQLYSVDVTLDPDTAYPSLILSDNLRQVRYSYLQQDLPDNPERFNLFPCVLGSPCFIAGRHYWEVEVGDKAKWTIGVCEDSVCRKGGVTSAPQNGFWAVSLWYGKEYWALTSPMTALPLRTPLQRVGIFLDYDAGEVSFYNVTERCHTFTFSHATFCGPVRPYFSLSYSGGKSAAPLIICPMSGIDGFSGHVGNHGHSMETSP

In one test the parent is B1. Conditions: with traf2_human TRAF2, Q12933.
Chain of traf2_human TRAF2, Q12933 (Q12933 whole entry): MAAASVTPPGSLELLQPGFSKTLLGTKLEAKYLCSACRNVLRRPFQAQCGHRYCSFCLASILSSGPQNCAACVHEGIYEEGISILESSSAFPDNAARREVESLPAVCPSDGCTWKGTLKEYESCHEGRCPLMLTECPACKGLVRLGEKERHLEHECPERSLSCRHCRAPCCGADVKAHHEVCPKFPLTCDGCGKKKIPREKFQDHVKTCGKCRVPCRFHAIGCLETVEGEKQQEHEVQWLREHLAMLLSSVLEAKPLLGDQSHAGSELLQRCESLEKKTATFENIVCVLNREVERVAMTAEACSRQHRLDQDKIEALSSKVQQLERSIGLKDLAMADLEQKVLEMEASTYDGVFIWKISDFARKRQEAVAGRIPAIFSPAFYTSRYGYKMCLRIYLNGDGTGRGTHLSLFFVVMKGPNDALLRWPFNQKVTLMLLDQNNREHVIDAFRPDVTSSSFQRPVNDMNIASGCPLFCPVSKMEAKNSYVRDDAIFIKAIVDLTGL
Take E67G: the “effect of a mutation on the interaction” value was “with no effect”.

Variants of B1 are the subject of a further test. Conditions: with maga9_human MAGEA9, P43362.
Chain of maga9_human MAGEA9, P43362 (P43362 whole entry): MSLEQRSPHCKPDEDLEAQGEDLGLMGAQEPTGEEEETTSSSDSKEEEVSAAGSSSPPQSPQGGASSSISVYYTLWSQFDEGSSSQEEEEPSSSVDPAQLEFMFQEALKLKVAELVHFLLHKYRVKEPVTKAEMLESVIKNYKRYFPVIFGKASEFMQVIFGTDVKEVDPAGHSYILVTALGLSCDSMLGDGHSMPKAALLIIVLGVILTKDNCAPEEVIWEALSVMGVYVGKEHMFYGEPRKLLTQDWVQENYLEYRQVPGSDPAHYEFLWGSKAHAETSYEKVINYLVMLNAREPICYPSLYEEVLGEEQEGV
Consider E67G, for which the “effect of a mutation on the interaction” value is reported as “with no effect”.

The variants in another test derive from B2. Particulars: with 4et_human EIF4ENIF1, Q9NRA8.
As to T297I, the “effect of a mutation on the interaction” value was “with no effect”. In the case of S7F, the “effect of a mutation on the interaction” value is listed as “with no effect”.

Variants of B3 are the subject of another test. Particulars: with pe2r3_human PTGER3, P43115.
For the variant H347Y, the “effect of a mutation on the interaction” value is given as “with no effect”.

Variants of B4 are the subject of another test. Conditions: with creb3_human CREB3, O43889.
Regarding T137M, the “effect of a mutation on the interaction” value is “with no effect”.

Another test covers variants of B5. Particulars: with 8odp_human NUDT1, P36639.
In the case of E381D, the “effect of a mutation on the interaction” value is listed as “with no effect”.

A further test covers variants of B5. Conditions: with 8odp_human NUDT1, P36639. This is another data set of the same source.
As for R197W, the “effect of a mutation on the interaction” value is recorded as “with no effect”.

Variants of B6 are the subject of a further test. Conditions: with pch2_human TRIP13, Q15645.
Regarding Q155H, the “effect of a mutation on the interaction” value is on record as “disrupting interaction strength”. As to R255H, the “effect of a mutation on the interaction” value was “with no effect”.

In a further test the parent is B7. Particulars: with tri27_human TRIM27, P14373.
Consider S309Y, for which the “effect of a mutation on the interaction” value is listed as “with no effect”. Consider S129N, for which the “effect of a mutation on the interaction” value was “with no effect”.
